Read-outs that look alike come from different tables or passages of the source.

Series [1] deals with rat CEACAM1 D(2–4)-His ectodomain (rat). As to the kind of experiment: cross-linking.
Series [2] deals with the molecule itself. The series is described as follows: molecular electron tomography.
Series [3] concerns the molecule itself. As to the kind of experiment: molecular electron tomography. This is another data set of the same source.
The target of series [4] is T1, rat CEACAM1 D(1–4)-Fc fusion protein (rat, UniProt P16573 35-425).
T1 sequence (looked up): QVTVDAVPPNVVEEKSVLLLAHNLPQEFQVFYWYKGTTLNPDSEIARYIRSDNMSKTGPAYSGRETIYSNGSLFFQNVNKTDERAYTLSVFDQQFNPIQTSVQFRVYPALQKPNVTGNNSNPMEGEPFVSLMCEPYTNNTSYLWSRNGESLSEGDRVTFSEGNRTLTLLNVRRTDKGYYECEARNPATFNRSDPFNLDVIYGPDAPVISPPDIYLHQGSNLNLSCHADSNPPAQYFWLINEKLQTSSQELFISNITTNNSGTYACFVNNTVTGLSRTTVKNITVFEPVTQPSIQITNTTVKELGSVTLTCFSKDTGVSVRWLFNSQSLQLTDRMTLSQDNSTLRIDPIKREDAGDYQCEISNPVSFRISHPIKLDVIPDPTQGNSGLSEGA
As to the kind of experiment: SPR. On the technique in general: Surface plasmon resonance follows binding to a sensor surface in real time, without labels.

Regarding “rat CEACAM1 D(2–4)-His ectodomain (domain or fragment)”, in series [1], the fold lower percentage of cross-linked dimers than D(1–4) stood at 4 fold lower.

B1: rat CEACAM1 D(1–4)-His ectodomain (domain or fragment, UniProt P16573 35-425, looked up)
chain: QVTVDAVPPNVVEEKSVLLLAHNLPQEFQVFYWYKGTTLNPDSEIARYIRSDNMSKTGPAYSGRETIYSNGSLFFQNVNKTDERAYTLSVFDQQFNPIQTSVQFRVYPALQKPNVTGNNSNPMEGEPFVSLMCEPYTNNTSYLWSRNGESLSEGDRVTFSEGNRTLTLLNVRRTDKGYYECEARNPATFNRSDPFNLDVIYGPDAPVISPPDIYLHQGSNLNLSCHADSNPPAQYFWLINEKLQTSSQELFISNITTNNSGTYACFVNNTVTGLSRTTVKNITVFEPVTQPSIQITNTTVKELGSVTLTCFSKDTGVSVRWLFNSQSLQLTDRMTLSQDNSTLRIDPIKREDAGDYQCEISNPVSFRISHPIKLDVIPDPTQGNSGLSEGA
modifications: glycosylated (polydisperse, varying degrees of glycosylation; average molecular mass 81 kD)
With B1, in series [2], the “KD monomer/A-dimer” value turned out to be 113 µM and the “KD monomer/C-dimer” value came to 43.8 µM. Besides, in series [3], the “KD monomer/A-dimer” value stood at 260 µM and the “KD monomer/C-dimer” value was 72.1 µM. Moreover, in series [4], the affinity, expressed as Kd, was 11.2 µM; the koff was 0.508 ± 0.0078 s⁻¹; the kon turned out to be 45300 ± 3600 M⁻¹ s⁻¹.

In general, Kd refers to the constant that tells how readily two partners part at equilibrium. Read a high Kd as weaker binding. For orientation: koff means the rate constant with which the complex falls apart. The low end stands for a long-lived complex, the high end for a short-lived complex. What is called kon is a measure of how fast the partners come together. Higher therefore signals fast association.

The values are drawn from publication PMC2779236 (The Journal of Cell Biology, 2009).
